The values that follow come from paper PMC11036628.

This test deals with Dectin-1 (mouse (endogenous in bone marrow-derived dendritic cells)) (UniProt Q6QLQ4).
Chain of UniProt Q6QLQ4 (Q6QLQ4 whole entry): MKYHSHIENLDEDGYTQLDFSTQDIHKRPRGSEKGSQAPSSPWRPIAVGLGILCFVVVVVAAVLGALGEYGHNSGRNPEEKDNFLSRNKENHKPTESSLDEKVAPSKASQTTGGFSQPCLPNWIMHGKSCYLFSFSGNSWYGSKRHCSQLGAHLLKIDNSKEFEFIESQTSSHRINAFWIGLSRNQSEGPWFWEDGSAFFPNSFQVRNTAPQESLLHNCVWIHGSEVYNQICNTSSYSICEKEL

Regarding “Neem Leaf Glycoprotein (natural protein)”, the IL-10 transcripts by quantitative PCR on NLGP addition to tumour-conditioned mBMDCs; counterbalanced by Laminarin, Dectin-1 siRNA and both stood at 4.5 fold; the IL-12p35 transcripts by quantitative PCR on NLGP addition to tumour-conditioned mBMDCs; counterbalanced by Laminarin, Dectin-1 siRNA and both came to 1.5 fold.
